Assay results from article PMC4715562 (Proteins, 2015).

Molecular target: the molecule itself
Test: crystal structure

B1: Xrcc4-MyH7-1590-1657 (domain or fragment, human)
chain: GGSGERKISRIHLVSEPSITHFLQVSWEKTLESGFVITLTDGHSAWTGTVSESEISQEADDMAMEKGKYVGELRKALLSGAGPADVYTFNFSKESCYFFFEKNLKDVSFRLGSFNLEKVENPAEVIRELICYCLDTTAENQAKNEHHLRVVDSLQTSLDAETRSRNEALRVKKKMEGDLNEMEIQLSHANRMAAEAQKQVKSLQSLLKDTQIQL
modifications: reductively methylated
binding result: binds
